In the RNAGym collection of RNA variant scans (doi:10.7554/elife.80360):

B1: Hammerhead Ribozyme (parent)
chain: ACCGGAUGUGCUUUCCGGUCUGAUGAGUCCGUGAGGACGAAACAG

Variants of: B1
Assay: self-cleavage, relative activity (ratio to wild type); higher = more cleavage; co-transcriptional

Row | Variant | self-cleavage
1 | G8C U21A | 0.784
2 | U12G C29U | 0.541
3 | U14C G22A | 0.32
4 | G33A A37C | 1.03
5 | C15U C43A | 0.413
6 | C29U C38U | 1.04
7 | G8C A23G | 0.376
8 | A23C A42U | 0.331
9 | U12G A41G | 0.339
10 | U12A U28C | 1.1
11 | A26U A41C | 0.295
12 | A1U G18U | 0.475
13 | C2G U32C | 0.332
14 | C38G A41G | 0.404
15 | U9G G36A | 0.57
16 | G10C A40G | 0.398
17 | G4U A40G | 0.303
18 | U21A A26C | 0.299
19 | U28A C38G | 0.521
20 | G4U A44G | 0.789
21 | U24A C43A | 0.341
22 | U9C G18A | 0.627
23 | C16G G39U | 0.345
24 | A44C G45U | 0.721

Row | Variant | self-cleavage
25 | A23C A34C | 0.374
26 | U28A G31C | 0.919
27 | C2U C30A | 0.893
28 | G31C C38U | 0.94
29 | A37U C38U | 0.714
30 | U7C A42C | 0.3
31 | G18C U21C | 0.284
32 | U9G C30U | 1.26
33 | A1U G25C | 0.357
34 | U12A G22U | 0.328
35 | G17A G35C | 0.548
36 | C11G U24C | 1.07
37 | G25C G33C | 0.272
38 | G5A C30U | 1.43
39 | U24G A40C | 0.421
40 | G22U G27A | 0.305
41 | A6U A44G | 1.12
42 | G17U G22C | 0.314
43 | G17U A37C | 0.688
44 | G5C G39U | 0.251
45 | C3U G36U | 0.491
46 | U19G C20G | 0.307
47 | G25A | 0.377
48 | A37G A44G | 0.74

Row | Variant | self-cleavage
49 | G18U A42U | 0.339
50 | C29G U32C | 0.708
51 | U14A U24C | 1.2
52 | U19G G35A | 0.282
53 | U19G G35U | 0.397
54 | A23U A40G | 0.237
55 | G8C G17U | 0.752
56 | G18A U21C | 0.396
57 | G4U C30A | 0.4
58 | U14C G31C | 0.816
59 | G18A G22U | 0.373
60 | U28A A41C | 0.277
61 | U14C G35A | 0.565
62 | A42G C43U | 0.326
63 | G8A G25U | 0.353
64 | C2G G18A | 0.459
65 | C2G G18C | 0.651
66 | U14A A23G | 0.351
67 | G25U A40U | 0.417
68 | C16U C38G | 0.717
69 | C20A A44U | 0.323
70 | U19G C38U | 0.364
71 | C2U U21G | 0.742
72 | G22C G45C | 0.424

Row | Variant | self-cleavage
73 | C16U C43A | 0.352
74 | C16U A23U | 0.358
75 | U7C A40G | 0.382
76 | U7C A40U | 0.373
77 | C11U A34G | 0.83
78 | C11U A34C | 0.584
79 | C29A C38G | 0.281
80 | G36A A37G | 0.556
81 | G18U G39C | 0.32
82 | U7A C15U | 1.04
83 | A23U A41G | 0.301
84 | G5U G33A | 0.913
85 | U9C C11A | 1.6
86 | C16G G45U | 0.467
87 | C11U U24A | 1.2
88 | C16G U32A | 1.03
89 | G4C A37G | 0.516
90 | G18C U28C | 0.263
91 | A1G A34U | 1.47
92 | U13C U24C | 1.31
93 | G39U G45C | 0.408
94 | U12C U24G | 1.13
95 | A1C U21C | 0.293
96 | C3G U19G | 0.306

Row | Variant | self-cleavage
97 | U19C G36C | 0.427
98 | G5C A44G | 0.831
99 | U24C A41G | 0.358
100 | C3A A34C | 0.359
101 | G27C G35A | 0.443
102 | U13A G39C | 0.341
103 | G8U G27C | 0.794
104 | G25C G35U | 0.357
105 | G4A G35C | 0.391
106 | U7G A40U | 0.401
107 | C11A U14G | 1.27
108 | A1C G4C | 0.472
109 | C30A A42C | 0.322
110 | U12G G39C | 0.424
111 | G18A A40U | 0.288
112 | U7G G27C | 0.763
113 | U7G G8C | 1.37
114 | A1G U19A | 0.511
115 | G8C U12G | 1.43
116 | G10U G35C | 0.685
117 | U9C U28A | 0.717
118 | A6G G27A | 0.657
119 | G5U A37C | 0.403
120 | C11U U28G | 0.703

Row | Variant | self-cleavage
121 | G17U U28G | 0.513
122 | G17U U28C | 0.495
123 | A6C A34G | 0.722
124 | G17C C20G | 0.279
125 | A23G A42U | 0.335
126 | C11G G27C | 0.938
127 | U9A U12C | 0.947
128 | U13G U21G | 0.537
129 | C2A A37U | 0.368
130 | G8A A41U | 0.323
131 | A6G C20U | 0.432
132 | C15A A44U | 0.441
133 | U28G C38U | 0.858
134 | C16A U21C | 0.276
135 | G33A G45A | 0.794
136 | G10A U32A | 1.14
137 | C3G C16U | 0.327
138 | U9C U13G | 0.946
139 | C11U C38U | 1.02
140 | C15A G25U | 0.339
141 | U9A C15G | 0.758
142 | C20G C43A | 0.353
143 | C3U U9A | 1.03
144 | C3U U9C | 1.08

Row | Variant | self-cleavage
145 | G22A A37G | 0.285
146 | G5C G35A | 0.362
147 | U12C G25C | 0.354
148 | U24G A42G | 0.346
149 | U24G A42C | 0.343
150 | A1U G33U | 0.972
151 | C29A A42C | 0.304
152 | G4C U32G | 0.324
153 | G33C G45C | 0.46
154 | G5U U32C | 0.822
155 | C15A G39U | 0.353
156 | C15G | 0.877
157 | U9A G25A | 0.345
158 | G4A A44C | 0.388
159 | C15G A34C | 0.671
160 | G25C A40C | 0.359
161 | C15U G39C | 0.407
162 | G25A U32A | 0.352
163 | C16U A44C | 0.586
164 | C30U G36C | 0.667
165 | A41G C43U | 0.366
166 | U7C A23U | 0.339
167 | C20A C29U | 0.357
